Data set [1] in a line: folding stability dG unfold from chymotrypsin proteolysis; higher = more stable. The method in brief: (§1)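 Only designs with AlphaFold2 dimer inter-PAE above 15 were retained; each was a mini-protein under 80 residues with no cysteine, in a PA-tagged cDNA display construct. After digestion with trypsin and chymotrypsin and sequencing, K50 was inferred by Bayesian fitting of counts, and unfolding free energy was derived per protease or combined against a sequence-predicted unfolded-state K50 and a shared folded-state K50.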

Data set [2] in a line: folding stability dG unfold (combined trypsin and chymotrypsin); higher = more stable. In short, it runs like this: as §1
Data set [3] is described as follows: folding stability dG unfold from trypsin proteolysis; higher = more stable. The method in brief:
as §1

± gives the half width of the 95% confidence interval.

For “SAGGSAGGSAGGMTVTVEISIPVTVETSFFKPNKPYFKKKTINKKITIEIPNGEPLSLLSAGGSAGGSAGGS [r10_633_JUSTAS]”, the “folding stability dG unfold” value is -0.0788 ± 0.2 kcal/mol in data set [1], 0.249 ± 0.13 kcal/mol in data set [2] and 0.492 ± 0.14 kcal/mol in data set [3].
“SAGGSAGGSAGGMTVVERTIEVEPDAKVIPLNLPGSNISATVLEYDPETGTLKVKIYVKESAGGSAGGSAGG [r17_198_JUSTAS]”: the “folding stability dG unfold” value in data set [1] worked out at 1.06 ± 0.12 kcal/mol; in data set [2], 0.945 ± 0.11 kcal/mol; in data set [3] it was 0.485 ± 0.05 kcal/mol.
In the same order, the values of “SAGGSAGGSAGGMVELDPENGTLTVLVEVDGELYKVTIKFNPETNEIVSIEVEKLPELEESAGGSAGGSAGG [r7_343_TrROS_Hall]” are 3.85 ± 0.31 kcal/mol, 3.66 ± 0.42 kcal/mol and 3.03 ± 0.41 kcal/mol.
In the same order, the values of “SAGGSAGGSAGGMVIKITTESGEKIEIEVPEEDEEKVKELVKELEKAGFKVKKVEVFEPSAGGSAGGSAGGS [r10_231_TrROS_Hall]” are 1.87 ± 0.073 kcal/mol, 1.77 ± 0.17 kcal/mol and 1.6 ± 0.11 kcal/mol.
In the same order, the values of “SAGGSAGGSAGGMVRITVEVDGKTYELVVEGMSLEEIEELLKKPNIKKAKVEPLSEEELKSAGGSAGGSAGG [r7_502_TrROS_Hall]” are 2.71 ± 0.09 kcal/mol, 2.32 ± 0.098 kcal/mol and 1.24 ± 0.04 kcal/mol.
As to “SAGGSAGGSAGGMVVKIKVDGKTITLSAEELKKNKDLLKELEKKGYKIVSIEVFEPEEESAGGSAGGSAGGS [r10_396_TrROS_Hall]”, the “folding stability dG unfold” value in data set [1] stood at 1.71 ± 0.027 kcal/mol; in data set [2] it was 1.67 ± 0.08 kcal/mol; in data set [3], 1.57 ± 0.056 kcal/mol.
In the same order, the values of “SAGGSAGGSAGGMYITFDFEVPPNNPEVIEELKSKGIEYKKIEPKPDKVKVKVIIPEKLLSAGGSAGGSAGG [r7_41_JUSTAS]” are -0.12 ± 0.27 kcal/mol, -0.38 ± 0.27 kcal/mol and -0.638 ± 0.3 kcal/mol.
In the same order, the values of “SAGGSAGGSAGGMYVAVVTRPDGSRLVVETEPGEEIELFTEDGRPLGITAVAPVDEEAFSAGGSAGGSAGGS [r10_422_TrMRF]” are -0.334 ± 0.18 kcal/mol, 0.227 ± 0.09 kcal/mol and 0.444 ± 0.036 kcal/mol.
For the sequence “SAGGSAGGSAGGNGKKEITIFIKVPPGMPPNEIKDELKDLGLTNIEIERHNNWVMITFRSAGGSAGGSAGGS [r10_868_TrROS]”, the “folding stability dG unfold” value worked out at 1.84 ± 0.099 kcal/mol in data set [1], 1.58 ± 0.12 kcal/mol in data set [2] and 1.15 ± 0.06 kcal/mol in data set [3].
In the same order, the values of “SAGGSAGGSAGGNIEVLPIPDGYWVIKIPDGRIMVFNPGRGEFEPIPIENVTIEPVRPGDSAGGSAGGSAGG [r7_656_TrROS]” are 0.929 ± 0.055 kcal/mol, 0.783 ± 0.076 kcal/mol and 0.4 ± 0.021 kcal/mol.
With “SAGGSAGGSAGGNIKVDDVHHNPNNYRQVKIDLPGGKPIKIWMSMDDPNNVKEIAKEIFSAGGSAGGSAGGS [r10_472_TrROS]”, the entries for the “folding stability dG unfold” value in data set [1], in data set [2] and in data set [3] were -0.414 ± 0.18 kcal/mol, -0.22 ± 0.1 kcal/mol and -0.191 ± 0.048 kcal/mol, respectively.
In the same order, the values of “SAGGSAGGSAGGNITVTEDGWIVIEIPYYSPDGGPSPITIVIPIPKMPPEEAEELADKGSAGGSAGGSAGGS [r10_1096_TrROS]” are 1.04 ± 0.14 kcal/mol, 1.11 ± 0.14 kcal/mol and 1.13 ± 0.14 kcal/mol.
Take “SAGGSAGGSAGGNNLYSTSTTVLSTVPVRPDETVTRPGTGAPVSPSETVALSTTSTAPSLSAGGSAGGSAGG [r11_793_JUSTAS]”: the “folding stability dG unfold” value in data set [1] was -0.729 ± 0.081 kcal/mol; in data set [2], 0.246 ± 0.054 kcal/mol; in data set [3], 0.629 ± 0.026 kcal/mol.
In the same order, the values of “SAGGSAGGSAGGPDAAPSAVREYVLVTVPVYAENGTPLGPVTVVAPASVSLAAVADAVFNSAGGSAGGSAGG [r7_109_TrMRF]” are 0.368 ± 0.19 kcal/mol, 0.399 ± 0.11 kcal/mol and 0.292 ± 0.077 kcal/mol.

The record behind these values is the supplement of paper PMC12764529.
